From the supplement of paper PMC10724198
± gives the standard deviation of the averaged measurements.

Legend:
Saccharomyces cerevisiae [1] = assay: protein stability index of tFT-peptide fusion (C-terminal peptide) (PSI (0-1 scale)); higher = more stable (slower turnover)
Protocol: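 MPS profiling in S. cerevisiae of the tFT-X12 degron library: putative degron peptides plus stable controls, 12 aa, fused to the C-terminus of a sfGFP-mCherry timer. Cells are FACS-sorted into 8 mCherry/sfGFP bins and deep-sequenced. PSI runs from 0 (unstable) to 1 (stable). Backgrounds are wild type, das1Δ and doa10Δ at 30 °C, and wild type, das1Δ, cdc34-1 and cdc53-1 at 37 °C; 2-3 technical replicates each.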

Saccharomyces cerevisiae [2] = assay: as above; conditions: genetic background: wild type; temperature: 30 C
[3] = genetic background: cdc34-1, temperature: 37 C
[4] = genetic background: cdc53-1, temperature: 37 C
[5] = genetic background: das1 deletion, temperature: 30 C
[6] = genetic background: das1 deletion, temperature: 37 C
[7] = genetic background: doa10 deletion, temperature: 30 C
[8] = genetic background: wild type, temperature: 30 C
[9] = genetic background: wild type, temperature: 37 C
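Also: PSI is a weighted mean of sequencing reads over stability bins, variants kept only with over 10 reads, mCherry proximal and sfGFP distal, peptide attached via GGGS linker.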

Sequence	protein stability index (Saccharomyces cerevisiae [1]; [3])	protein stability index (Saccharomyces cerevisiae [1]; [4])	protein stability index (Saccharomyces cerevisiae [1]; [5])	protein stability index (Saccharomyces cerevisiae [1]; [6])	protein stability index (Saccharomyces cerevisiae [1]; [7])	protein stability index (Saccharomyces cerevisiae [1]; [8])	protein stability index (Saccharomyces cerevisiae [1]; [9])	protein stability index (Saccharomyces cerevisiae [2])
RVVITYLVLSNR	0.648 ± 0.06	0.686 ± 0.013	0.509 ± 0.018	0.646 ± 0.011	0.522 ± 0.039	0.505 ± 0.018	0.6445 ± 0.0056	0.547 ± 0.094
RWALPALWAYAA	0.493 ± 0.029	0.715 ± 0.034	0.583 ± 0.025	0.7029 ± 0.007	0.0884 ± 0.011	0.105 ± 0.012	0.16 ± 0.05	0.146 ± 0.094
RWGLFIGIVIGF	0.146 ± 0.0085	0.211 ± 0.003	0.219 ± 0.037	0.338 ± 0.0087	0.235 ± 0.014	0.217 ± 0.024	0.317 ± 0.025	0.337 ± 0.021
RYQDLSDWRRIS	0.412 ± 0.02	0.6574 ± 0.0031	0.629 ± 0.0036	0.753 ± 0.028	0.073 ± 0.0096	0.0791 ± 0.017	0.0794 ± 0.017	0.159 ± 0.0075
RYTWHGICIVTR	0.43107 ± 0.00014	0.456 ± 0.013	0.312 ± 0.027	0.4805 ± 0.0035	0.285 ± 0.0063	0.313 ± 0.019	0.476 ± 0.0052	0.4401 ± 0.0033
SCCLLICIFFIF	0.317 ± 0.045	0.408 ± 0.065	0.306 ± 0.015	0.391 ± 0.064	0.227 ± 0.0076	0.231 ± 0.029	0.33 ± 0.0056	0.297 ± 0.0023
SCLSYRTRLLAF	0.52 ± 0.045	0.617 ± 0.011	0.477 ± 0.019	0.587 ± 0.0083	0.406 ± 0.0086	0.41 ± 0.014	0.504 ± 0.011	0.49 ± 0.0059
SCRCIIFVCCFW	0.256 ± 0.0043	0.404 ± 0.032	0.262 ± 0.025	0.465 ± 0.057	0.235 ± 0.0024	0.237 ± 0.034	0.388 ± 0.023	0.384 ± 0.011
SFFVCAGFWVLC	0.419 ± 0.0091	0.511 ± 0.081	0.347 ± 0.025	0.539 ± 0.049	0.248 ± 0.011	0.289 ± 0.016	0.456 ± 0.0091	0.363 ± 0.024
SFLCGCVVCWLW	0.464 ± 0.063	0.547 ± 0.039	0.397 ± 0.026	0.552 ± 0.011	0.4 ± 0.027	0.396 ± 0.014	0.505 ± 0.0073	0.449 ± 0.04
SFLVRFVYFFAL	0.54 ± 0.043	0.619 ± 0.025	0.549 ± 0.021	0.6696 ± 0.0039	0.229 ± 0.02	0.232 ± 0.027	0.309 ± 0.017	0.314 ± 0.019
SFQLVFLCVLIW	0.136 ± 0.0088	0.129 ± 0.008	0.155 ± 0.024	0.237 ± 0.0049	0.203 ± 0.011	0.154 ± 0.0091	0.184 ± 0.011	0.218 ± 0.029
SFTPPRVCLCFS	0.465 ± 0.04	0.503 ± 0.008	0.319 ± 0.029	0.5205 ± 0.0047	0.2778 ± 0.002	0.3 ± 0.024	0.496 ± 0.02	0.3999 ± 0.0022
SFVCFFLNLFVY	0.0549 ± 0.013	0.138 ± 0.013	0.172 ± 0.032	0.272 ± 0.017	0.123 ± 0.021	0.123 ± 0.019	0.18 ± 0.018	0.164 ± 0.0077
SGCWGRRLWFFN	0.668 ± 0.04	0.791 ± 0.018	0.66 ± 0.037	0.7567 ± 0.0052	0.189 ± 0.018	0.235 ± 0.016	0.453 ± 0.011	0.325 ± 0.065
SIFWWWLVFILG	0.469 ± 0.0093	0.4759 ± 0.0034	0.362 ± 0.02	0.502 ± 0.008	0.366 ± 0.018	0.368 ± 0.026	0.462 ± 0.011	0.418 ± 0.085
SIIRHLFHPSST	0.67 ± 0.026	0.7184 ± 0.0046	0.643 ± 0.0091	0.72688 ± 9e-05	0.65 ± 0.018	0.659 ± 0.03	0.695 ± 0.018	0.709 ± 0.013
SIPFWPVLFFLL	0.353 ± 0.021	0.475 ± 0.014	0.494 ± 0.018	0.6088 ± 0.0044	0.0877 ± 0.011	0.091 ± 0.011	0.0952 ± 0.0057	0.14 ± 0.033
SIRIIVVVRGAS	0.528 ± 0.048	0.628 ± 0.056	0.433 ± 0.023	0.61 ± 0.071	0.393 ± 0.024	0.41 ± 0.017	0.543 ± 0.02	0.382 ± 0.12
SLCSRLVVVAWF	0.531 ± 0.017	0.599 ± 0.026	0.432 ± 0.026	0.608 ± 0.014	0.374 ± 0.035	0.386 ± 0.0062	0.553 ± 0.026	0.494 ± 0.024

Sequence	protein stability index (Saccharomyces cerevisiae [1]; [3])	protein stability index (Saccharomyces cerevisiae [1]; [4])	protein stability index (Saccharomyces cerevisiae [1]; [5])	protein stability index (Saccharomyces cerevisiae [1]; [6])	protein stability index (Saccharomyces cerevisiae [1]; [7])	protein stability index (Saccharomyces cerevisiae [1]; [8])	protein stability index (Saccharomyces cerevisiae [1]; [9])	protein stability index (Saccharomyces cerevisiae [2])
SLRKRILCRFEY	0.6572 ± 0.0064	0.708 ± 0.011	0.655 ± 0.012	0.7348 ± 0.0056	0.368 ± 0.041	0.4388 ± 0.0014	0.599 ± 0.023	0.511 ± 0.023
SLSIFCLMLMLF	0.564 ± 0.04	0.601 ± 0.029	0.467 ± 0.016	0.565 ± 0.025	0.425 ± 0.015	0.406 ± 0.021	0.512 ± 0.012	0.4537 ± 0.0037
SPPSFPPLLLLS	0.668 ± 0.043	0.7368 ± 0.00078	0.608 ± 0.015	0.7386 ± 0.0036	0.326 ± 0.028	0.362 ± 0.022	0.541 ± 0.028	0.48 ± 0.022
SPSFLVIFTMLL	0.528 ± 0.023	0.577 ± 0.01	0.433 ± 0.034	0.6018 ± 0.0041	0.438 ± 0.044	0.444 ± 0.013	0.596 ± 0.017	0.468 ± 0.015
SPSSLPRPLFLS	0.592 ± 0.015	0.726 ± 0.017	0.616 ± 0.015	0.7356 ± 0.0018	0.138 ± 0.033	0.163 ± 0.02	0.289 ± 0.026	0.261 ± 0.053
SPVPITVAVGCR	0.473 ± 0.0085	0.491 ± 0.012	0.352 ± 0.034	0.5444 ± 0.0028	0.329 ± 0.008	0.357 ± 0.021	0.499 ± 0.018	0.407 ± 0.029
SQSNQSIIRKNV	0.7 ± 0.043	0.713 ± 0.0077	0.63 ± 0.013	0.737 ± 0.016	0.296 ± 0.034	0.36 ± 0.032	0.551 ± 0.069	0.453 ± 0.02
SSCLPAPPPLPL	0.6491 ± 0.003	0.747 ± 0.025	0.682 ± 0.042	0.698 ± 0.0084	0.677 ± 0.0075	0.672 ± 0.021	0.701 ± 0.017	0.4965 ± 0.0048
SSFFFLFCFFPS	0.575 ± 0.13	0.619 ± 0.027	0.48 ± 0.062	0.646 ± 0.055	0.444 ± 0.031	0.449 ± 0.019	0.604 ± 0.017	0.471 ± 0.047
SSFPGPPLPPDP	0.704 ± 0.024	0.74 ± 0.013	0.652 ± 0.024	0.731 ± 0.022	0.682 ± 0.038	0.7 ± 0.019	0.7108 ± 0.0069	0.59 ± 0.17
SSVFRLKGLMFL	0.622 ± 0.062	0.721 ± 0.042	0.65 ± 0.047	0.7146 ± 0.0016	0.262 ± 0.0081	0.277 ± 0.016	0.448 ± 0.012	0.442 ± 0.038
SSVLLMFFCFVC	0.256 ± 0.02	0.388 ± 0.015	0.318 ± 0.014	0.476 ± 0.025	0.159 ± 0.012	0.164 ± 0.011	0.252 ± 0.019	0.262 ± 0.023
SSVLWVMFVFFY	0.313 ± 0.026	0.387 ± 0.0063	0.309 ± 0.058	0.442 ± 0.0026	0.264 ± 0.0091	0.253 ± 0.067	0.387 ± 0.027	0.436 ± 0.058
SVFGLLSVCFFY	0.488 ± 0.032	0.5669 ± 0.002	0.385 ± 0.029	0.604 ± 0.0077	0.358 ± 0.016	0.398 ± 0.018	0.549 ± 0.022	0.472 ± 0.019
SVKRVVPCLVSC	0.442 ± 0.0081	0.468 ± 0.0077	0.332 ± 0.035	0.525 ± 0.0063	0.289 ± 0.0049	0.337 ± 0.022	0.486 ± 0.0031	0.45 ± 0.063
SVLSFGVFCLVG	0.553 ± 0.043	0.65407 ± 0.00051	0.524 ± 0.023	0.61 ± 0.0077	0.4185 ± 0.0031	0.427 ± 0.033	0.527 ± 0.013	0.538 ± 0.13
SVPRTRAPRLIS	0.646 ± 0.027	0.73 ± 0.034	0.658 ± 0.025	0.71911 ± 0.00014	0.184 ± 0.0079	0.213 ± 0.024	0.4611 ± 0.00082	0.384 ± 0.041
SVVFFYPPIFHA	0.636 ± 0.057	0.7392 ± 0.006	0.678 ± 0.053	0.713 ± 0.016	0.28 ± 0.0055	0.326 ± 0.027	0.549 ± 0.011	0.437 ± 0.044
SVVYSVWIYLLH	0.352 ± 0.018	0.4407 ± 0.0016	0.292 ± 0.022	0.484 ± 0.026	0.175 ± 0.0072	0.213 ± 0.03	0.392 ± 0.011	0.309 ± 0.0075
